Source: publication PMC7866087, “Evaluation of Computationally Designed Peptides against TWEAK, a Cytokine of the Tumour Necrosis Factor Ligand Family” (International Journal of Molecular Sciences, 2021)

Tested on: TWEAK-Fn14 signalling pathway, BRV5 cells
Assay: Cell-based screening of individual peptides, gene expression microarray in TWEAK-stimulated BRV5 cells
Design: species or system human
Conditions: for BIRC2 expression Z-Score / HSP90B1 expression Z-Score / IL6 expression Z-Score / JUN expression Z-Score / MAP4K4 expression Z-Score / MAPK14 expression Z-Score / NFKB2 expression Z-Score / TNFRSF12A expression Z-Score / TRAF2 expression Z-Score: normalized to NARS2
Method in brief: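 Serum-starved BRV5 cells were treated with individual peptides at 450 µM, given once or re-dosed hourly, every two hours or every three hours, with or without TWEAK at 25 ng/mL. RNA was harvested after 6 h, and expression of TWEAK-Fn14 downstream genes plus two housekeeping genes was quantified by Fluidigm EvaGreen qPCR as Ct and delta Ct values.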

[1] = TWEAK control T, BRV5, 6 h, replicate column 3
[2] = TWEAK control T, BRV5, 6 h, replicate column 4
[3] = individual peptides, BRV5 + TWEAK, 450 µM, 6 h, mean of replicate columns
[4] = individual peptides, BRV5 + TWEAK, 450 µM, 6 h, replicate column 1
[5] = individual peptides, BRV5 + TWEAK, 450 µM, 6 h, replicate column 2
[6] = individual peptides, BRV5 + TWEAK, 6 h
[7] = individual peptides, BRV5 + TWEAK, 6 h, listed as T

B1: tumour necrosis factor-like weak inducer of apoptosis (protein, UniProt O43508 94-249, looked up)
Tumor necrosis factor ligand …: SAPKGRKTRARRAIAAHYEVHPRPGQDGAQAGVDGTVSGWEEARINSSSPLRYNRQIGEFIVTRAGLYYLYCQVHFDEGKAVYLKLDLLVDGVLALRCLEEFSATAASSLGPQLRLCQVSGLLALRPGSSLRIRTLPWAHLKAAPFLTYFGLFQVH
What does the source list for B1?
BIRC2 mRNA expression (normalized to NARS2) [1]: 1.027; HSP90B1 mRNA expression (normalized to NARS2) [1]: 3.037; JUN mRNA expression (normalized to NARS2) [1]: 0.03535; MAP4K4 mRNA expression (normalized to NARS2) [1]: 0.2587; MAPK14 mRNA expression (normalized to NARS2) [1]: 0.3748; NFKB2 mRNA expression (normalized to NARS2) [1]: 0.06251; TNFRSF12A mRNA expression (normalized to NARS2) [1]: 0.03969; TRAF2 mRNA expression (normalized to NARS2) [1]: 0.07995; BIRC2 mRNA expression (normalized to NARS2) [2]: 1.011; HSP90B1 mRNA expression (normalized to NARS2) [2]: 2.84; JUN mRNA expression (normalized to NARS2) [2]: 0.03216; MAP4K4 mRNA expression (normalized to NARS2) [2]: 0.2342; MAPK14 mRNA expression (normalized to NARS2) [2]: 0.332; NFKB2 mRNA expression (normalized to NARS2) [2]: 0.06133; TNFRSF12A mRNA expression (normalized to NARS2) [2]: 0.03763; TRAF2 mRNA expression (normalized to NARS2) [2]: 0.08704; BIRC2 mRNA expression (normalized to NARS2) [3]: 0.9889; HSP90B1 mRNA expression (normalized to NARS2) [3]: 2.734; IL6 mRNA expression (normalized to NARS2) [3]: 0.00008785; JUN mRNA expression (normalized to NARS2) [3]: 0.02837; MAP4K4 mRNA expression (normalized to NARS2) [3]: 0.2098; MAPK14 mRNA expression (normalized to NARS2) [3]: 0.3339; NFKB2 mRNA expression (normalized to NARS2) [3]: 0.05526; TNFRSF12A mRNA expression (normalized to NARS2) [3]: 0.03637; TRAF2 mRNA expression (normalized to NARS2) [3]: 0.06681; BIRC2 mRNA expression (normalized to NARS2) [4]: 0.9782; HSP90B1 mRNA expression (normalized to NARS2) [4]: 2.649; IL6 mRNA expression (normalized to NARS2) [4]: 0.0001501; JUN mRNA expression (normalized to NARS2) [4]: 0.02253; MAP4K4 mRNA expression (normalized to NARS2) [4]: 0.1844; MAPK14 mRNA expression (normalized to NARS2) [4]: 0.3328; NFKB2 mRNA expression (normalized to NARS2) [4]: 0.05313; TNFRSF12A mRNA expression (normalized to NARS2) [4]: 0.03435; TRAF2 mRNA expression (normalized to NARS2) [4]: 0.05236; BIRC2 mRNA expression (normalized to NARS2) [5]: 0.9396; HSP90B1 mRNA expression (normalized to NARS2) [5]: 2.412; IL6 mRNA expression (normalized to NARS2) [5]: 0.00002557; JUN mRNA expression (normalized to NARS2) [5]: 0.02345; MAP4K4 mRNA expression (normalized to NARS2) [5]: 0.162; MAPK14 mRNA expression (normalized to NARS2) [5]: 0.2958; NFKB2 mRNA expression (normalized to NARS2) [5]: 0.04407; TNFRSF12A mRNA expression (normalized to NARS2) [5]: 0.03379; TRAF2 mRNA expression (normalized to NARS2) [5]: 0.04788; BIRC2 expression Z-Score [6]: 2.98; HSP90B1 expression Z-Score [6]: 0.8798; IL6 expression Z-Score [6]: -1.558; JUN expression Z-Score [6]: -0.7938; MAP4K4 expression Z-Score [6]: 0.6195; MAPK14 expression Z-Score [6]: 2.332; NFKB2 expression Z-Score [6]: 1.408; TNFRSF12A expression Z-Score [6]: 1.8; TRAF2 expression Z-Score [6]: 2.292; BIRC2 expression Z-Score [7]: 2.9803; HSP90B1 expression Z-Score [7]: 0.8798; IL6 expression Z-Score [7]: -1.5585; JUN expression Z-Score [7]: -0.7938; MAP4K4 expression Z-Score [7]: 0.6195; MAPK14 expression Z-Score [7]: 2.3319; NFKB2 expression Z-Score [7]: 1.4080; TNFRSF12A expression Z-Score [7]: 1.8000; TRAF2 expression Z-Score [7]: 2.2919
